Values of other authors in PMC8959454.
pKd: −log10 of the molar value.

What was measured:
LRP6 (Homo sapiens) = LRP6 (Homo sapiens) (UniProt O75581)
CKAP4 ECD (Homo sapiens) = CKAP4 ECD (Homo sapiens) (UniProt Q07065)
Chain of UniProt Q07065 (Q07065 128-602): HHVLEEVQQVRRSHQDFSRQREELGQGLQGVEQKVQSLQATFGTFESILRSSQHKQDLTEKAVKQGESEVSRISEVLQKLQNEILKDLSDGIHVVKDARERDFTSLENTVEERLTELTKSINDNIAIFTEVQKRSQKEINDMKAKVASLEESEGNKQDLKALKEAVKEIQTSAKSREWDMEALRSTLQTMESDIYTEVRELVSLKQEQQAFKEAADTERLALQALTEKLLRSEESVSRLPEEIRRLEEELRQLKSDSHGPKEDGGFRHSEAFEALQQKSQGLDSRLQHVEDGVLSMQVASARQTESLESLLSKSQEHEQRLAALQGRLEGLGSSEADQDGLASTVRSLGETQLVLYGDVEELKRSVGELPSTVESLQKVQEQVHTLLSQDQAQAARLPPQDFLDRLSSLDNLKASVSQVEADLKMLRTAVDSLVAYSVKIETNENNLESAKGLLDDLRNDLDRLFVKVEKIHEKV

Chain of UniProt O75581 (O75581 20-1370): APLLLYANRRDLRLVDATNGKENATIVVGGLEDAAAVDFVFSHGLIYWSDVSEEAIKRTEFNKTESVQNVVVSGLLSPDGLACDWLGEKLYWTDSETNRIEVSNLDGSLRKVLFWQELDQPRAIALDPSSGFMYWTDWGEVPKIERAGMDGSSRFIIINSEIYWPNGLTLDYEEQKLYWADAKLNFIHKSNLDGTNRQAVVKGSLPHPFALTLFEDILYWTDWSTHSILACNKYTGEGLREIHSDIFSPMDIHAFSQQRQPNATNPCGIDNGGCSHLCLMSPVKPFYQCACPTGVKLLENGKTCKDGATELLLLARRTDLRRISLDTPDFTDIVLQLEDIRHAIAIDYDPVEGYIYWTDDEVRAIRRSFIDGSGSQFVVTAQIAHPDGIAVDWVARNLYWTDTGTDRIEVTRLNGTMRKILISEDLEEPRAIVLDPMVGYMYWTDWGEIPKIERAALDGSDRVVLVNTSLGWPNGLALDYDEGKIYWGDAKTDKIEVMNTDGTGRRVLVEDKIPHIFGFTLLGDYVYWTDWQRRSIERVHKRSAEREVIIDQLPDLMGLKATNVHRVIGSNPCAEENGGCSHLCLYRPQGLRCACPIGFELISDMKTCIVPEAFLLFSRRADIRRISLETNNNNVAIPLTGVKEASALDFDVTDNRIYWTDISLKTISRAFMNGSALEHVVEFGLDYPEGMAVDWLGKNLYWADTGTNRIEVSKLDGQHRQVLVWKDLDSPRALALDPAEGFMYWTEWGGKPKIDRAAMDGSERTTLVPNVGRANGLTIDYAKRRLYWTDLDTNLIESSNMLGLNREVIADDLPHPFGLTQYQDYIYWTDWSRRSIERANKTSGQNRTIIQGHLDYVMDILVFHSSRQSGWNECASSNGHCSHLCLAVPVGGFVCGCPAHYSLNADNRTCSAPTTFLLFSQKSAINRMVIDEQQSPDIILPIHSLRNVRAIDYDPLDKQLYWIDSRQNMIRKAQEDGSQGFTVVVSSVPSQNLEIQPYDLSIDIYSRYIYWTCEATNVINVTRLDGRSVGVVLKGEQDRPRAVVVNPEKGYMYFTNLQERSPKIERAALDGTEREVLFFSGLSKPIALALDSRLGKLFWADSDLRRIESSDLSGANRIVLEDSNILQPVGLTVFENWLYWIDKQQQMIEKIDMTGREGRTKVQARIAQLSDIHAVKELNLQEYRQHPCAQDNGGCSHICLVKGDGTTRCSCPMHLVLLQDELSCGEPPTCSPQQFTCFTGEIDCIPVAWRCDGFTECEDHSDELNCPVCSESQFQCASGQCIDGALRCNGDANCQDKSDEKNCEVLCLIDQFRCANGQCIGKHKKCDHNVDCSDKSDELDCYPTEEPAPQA

DKK1 (from UniProt O94907)
pKd (LRP6 (Homo sapiens)): 9.38
pKd (CKAP4 ECD (Homo sapiens)): 9.38
